Results published in patent US20190015518A1, “DRUG DELIVERY COMPOSITIONS AND METHODS” (priority 2016, published 2019).

Experiments:
[1] = system: A2058 (human melanoma) cells; experiment: Anti-proliferative activity (Resazurin Blue, 72 hours); assay type: cell-based; conditions: mean ± S.E.M., cisplatin basis
Experimental: (§1) MDA-1986 (human head and neck squamous cell carcinoma), 4T1.2-neu (murine breast cancer cells), and A2058 (human melanoma) cells were maintained in Dulbecco's Modified Eagle Medium (DMEM, Corning, Manassas, Va.) with 4.5 g/L glucose, 4.5 g/L L-glutamine, and 10% fetal bovine serum in a humidified incubator at 37° C. and 5% CO2. Cells were seeded into 96-well plates (3,000 cells/well in 90 μL media) and allowed to attach overnight. […] Resazurin Blue (Acros Organics, Geel, Belgium) in PBS was added to each well (5-μM final concentration; 10-μL addition) and incubated at 37° C. for 4 hours. Fluorescence (λex 550 nm, λem 605 nm) was quantified with a SpectraMax Gemini XS plate-reader (Molecular Devices, Sunnyvale, Calif.). The relative growth of cells incubated with each compound concentration was normalized to vehicle-treated controls (100% proliferation). Data from at least three separate experiments performed in duplicate was analyzed using non-linear regression (GraphPad Prism 5.0) to generate IC50 values.

[2] = Pharmacokinetics in three tumor-bearing dogs (three-compartmental model); assay type: in vivo, dog; conditions: 10 mg/m2
Experimental: An open label, multiple dose/dosage phase I/II trial of 75HA-Lys-Pt was conducted at the University of Missouri Veterinary Medical Teaching Hospital (MU-VMTH). The clinical trial protocol was approved by the University of Missouri ACUC. Dogs of any age, sex, or breed presented to the MU-VMTH oncology service with the a histological diagnosis of anal sac carcinoma, oral squamous cell carcinoma, oral melanoma, nasal carcinoma, or digital squamous cell carcinoma with a performance score of 0 or 1 (0: normal activity; 1: restricted activity; 2: compromised activity; 3: disabled; 4: dead) and without comorbid conditions that would limit life expectancy to less than nine weeks were offered enrollment in the trial.
Following complete staging, client consent was obtained to enroll each dog in the study. Once enrolled in the study, longest tumor diameters of all target lesions were recorded. An indwelling jugular catheter was placed to facilitate collection of blood samples. Dogs received 10 to 30 mg/m^2 intra-tumoral injections through 1 to 3 pre-placed 22-ga spinal needles once every three weeks for up to four planned doses. Dogs were sedated or anesthetized for each treatment, and a 2-mL blood sample was collected from the jugular catheter at 0.5, 1, 2, 4, and 24 hours following drug administration. Blood samples were spun, plasma was collected and frozen within two hours. A CBC and renal profile with urinalysis were conducted prior to and one week after each treatment. Some dogs experiencing apparent adverse effects of drug administration had complete biomedical profiles performed. Tumor measurements were collected three weeks following each administration to assess response.
Serum samples of 3 dogs were diluted 20-fold in 1% HNO3, and vortexed prior to inductively coupled plasma mass spectrometry (ICP-MS) analysis. The platinum concentration of serum was determined using an Agilent 7500i ICP-MS. A calibration curve was generated from 1 to 50 ppb platinum (acceptable criterion R^2>0.995) and 50-ppb bismuth was used as an internal standard. […] The pharmacokinetics were modeled using a SAAM II three-compartmental model.
The serum pharmacokinetics data was modeled using a three-compartmental model with an injection site compartment (q3), a serum compartment (q1), and a tissue compartment (q2). […] Three transfer constants, k(1,3), k(1,2) and k(2,1), and one loss constant, k(0,1), were assigned to the model. The k(1,3) defined the drug absorption process allowing the transfer of HA-Pt from the injection site compartment to the serum compartment. A reversible k(3,1) was not necessary as a sink condition was assumed. Due to the concentration gradient between the injection site and the central serum compartments, drug redistribution back to the injection site was not expected. […] Drug transfer and equilibrium between plasma and tissue compartments were represented by k(1,2) and k(2,1). Post-injection drug diffused from the tissue at the injection site to the blood capillaries and the lymphatic vessels. Eventually the drug molecules entered the systemic circulation and distributed into organs. It is likely that the highly perfused organs, such as liver and kidneys, established equilibrium sooner than organs with low blood flow.

[3] = Pharmacokinetics in a healthy dog, oral sub-mucosa injection (SAAM II model); assay type: in vivo
Experimental: Pharmacokinetics of HA-Lys-Pt were determined in a healthy dog by Xenometrics LLC (Stillwell, Kans.). […] After each injection, 2-mL serum samples were collected at 0, 0.25, 1, 2, 6, 24, 48, 96, and 168 hours. […] The samples were frozen at −80° C. until ICP-MS analysis. Prior to analysis, serum and urine samples were diluted 250 and 500-fold using 1% HNO3, respectively. The platinum calibration curve contained 4 replicates of 6 concentrations (0, 1, 10, 20, 40, and 50 ppb). The internal standard was bismuth at 50 ppb.
The pharmacokinetics of the HA-Lys-Pt was measured using the serum and urine samples. The data was modeled using SAAM II software with a four compartmental model.
As indicated by the model, q1, q2, q3, and q4 represent the central blood compartment, the body/tissue compartment, the injection site, and the urine compartment, respectively. The syringe represents the dose that was given to the injection site compartment. The two red circles indicate the two sampling sources, the serum from the q1 (s1), and the urine from the q4 (s2). Furthermore, five transfer rate constants and one loss rate constant were applied to the model to link the compartments and their individual differential equations for data analysis and simulation. The assignment of rate constants and pharmacokinetic interpretation has been discussed previously. The calculated PK parameters including AUC, clearance, volume of distribution at steady state (Vss), elimination half-lives (te), and transfer rate constants, are listed in Table 3.

[4] = system: MDA-1986 (human head and neck squamous cell carcinoma) cells; experiment: Anti-proliferative activity (Resazurin Blue, 72 hours); assay type: cell-based; conditions: listed as HA-Lys-Pt 75 kDa
Experimental: as §1

[5] = system: 4T1.2-neu (murine breast cancer cells); experiment: as above; assay type: cell-based; conditions: mean ± S.E.M., cisplatin basis
Experimental: as §1

white blood cell DNA = experiment: Pt-DNA adduct quantitation in white blood cell DNA; assay type: in vivo, rat; conditions: cisplatin i.v. 10 mg/kg; HA-Lys-Pt s.c. 10 mg/kg cisplatin basis; 10 mg/kg
Experimental: Whole blood was centrifuged (1500×g, 5 min., 4° C., no brake). Top layer (plasma) and middle layer (white blood cells) were transferred to new tubes. Plasma was frozen (−20° C.) until analysis. […] The white blood cell pellet was washed twice with cold PBS and re-suspended in 9 mL of white blood cell buffer (10-mM Tris, pH 7.4, 2.3% NaCl, 2-mM EDTA), and 900 μL of 1.1-M NH4HCO3, 900 μL of 10% SDS, and 75 μL of 2% Proteinase K were added and incubated at 42° C. overnight. Then, 3.3 mL of 5-M NaCl was added, samples shaken vigorously, and centrifuged twice (3200×g, 5 min, 4° C.), each time discarding the pellet. DNA was pelleted with 20 mL of ice-cold 100% ethanol and centrifuged (3200×g, 5 min, 4° C.); the DNA pellet was washed twice with 75% ethanol, re-suspended in water, and quantitated. DNA was digested in 1% HNO3 (800 μL total volume) overnight at 70° C. DNA samples were diluted 1:10 in 1% HNO3 and plasma samples were diluted 1:10,000 in 1% HNO3. Diluted samples were analyzed for Pt content using ICP-MS with a calibration curve from 1-1000 ppt.

## HA-cis-[Pt(NH3)2(N^α-Acetyl-L-Lysine)] [75HA-Lys-Pt]
[1]
  IC50: 69.8 ± 7 µM
[2]; Dog 1 (28.7 kg)
  AUC: 4000 ng·h/mL
  Cmax: 174 ng/mL
  Tmax: 1 h
  Vss: 2 L/kg
[2]; Dog 2 (25.2 kg)
  AUC: 900 ng·h/mL
  Cmax: 155 ng/mL
  Tmax: 0.5 h
  Vss: 33.4 L/kg
[2]; Dog 3 (6.5 kg)
  AUC: 2200 ng·h/mL
  Cle: 1.53 mL/min/kg
  Cmax: 128 ng/mL
  Tmax: 0.5 h
  Vss: 8.9 L/kg
[3]; 1st dose […]
  Clearance: 0.283 mL/min/kg
  Tmax: 6 h
  Vss: 7.4 L/kg
[3]; 2nd dose 2.0 mg/kg
  AUC: 218000 ng·h/mL
  Clearance: 0.153 mL/min/kg
  Cmax: 3437 ng/mL
  Tmax: 14.4 h
  Vss: 2.5 L/kg
[4]; mean ± S.E.M., cisplatin basis
  IC50: 39.8 ± 4.4 µM
[4]; text b180
  IC50: ~21 µM
[5]
  IC50: 80.1 ± 12.7 µM
White blood cell DNA
  Pt-DNA adduct AUC: 4730 pg Pt×h/μg DNA
